Holding throughout (assay): ITC; β16β17 at 25–50 μM in the cell titrated with 15–20 injections to 2–2.5 eq of α0α1; one-site binding model; PBS (50 mM sodium phosphate, 150 mM NaCl, pH 7.04), 25 °C; mutants only against the wild-type partner
What all share (conditions): both partners purified

The target of test [1] is T1, β16β17 K46A (human, UniProt P11277 1898-2083, K2049A).
T1 construct: erythrocyte β-spectrin, human, residues 1898-2083 (β16β17); mutant of m2; also called K2049A; source: E. coli C41(DE3), purified (Ni2+ agarose, thrombin cleavage, gel filtration)
T1 sequence (looked up): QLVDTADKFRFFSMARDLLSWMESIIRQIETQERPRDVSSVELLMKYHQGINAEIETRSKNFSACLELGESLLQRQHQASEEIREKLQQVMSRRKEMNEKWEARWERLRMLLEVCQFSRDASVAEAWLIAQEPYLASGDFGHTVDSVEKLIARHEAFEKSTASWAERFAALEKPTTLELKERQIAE

The target of test [2] is T2, β16β17 S57A (human, UniProt P11277 1898-2083, S2060A).
T2 construct: erythrocyte β-spectrin, human, residues 1898-2083 (β16β17); mutant of m2; also called S2060A; source: E. coli C41(DE3), purified (Ni2+ agarose, thrombin cleavage, gel filtration)
T2 sequence (looked up): T1 sequence (looked up) with A152K, S163A

Test [3] concerns the target T3, β16β17 R13A (human, UniProt P11277 1898-2083, R2016A).
T3 construct: erythrocyte β-spectrin, human, residues 1898-2083 (β16β17); mutant of m2; also called R2016A; source: E. coli C41(DE3), purified (Ni2+ agarose, thrombin cleavage, gel filtration)
T3 sequence (looked up): T1 sequence (looked up) with R119A, A152K

Test [4] deals with T4, β16β17 K67A (human, UniProt P11277 1898-2083, K2070A).
T4 construct: erythrocyte β-spectrin, human, residues 1898-2083 (β16β17); mutant of m2; also called K2070A; source: E. coli C41(DE3), purified (Ni2+ agarose, thrombin cleavage, gel filtration)
T4 sequence (looked up): T1 sequence (looked up) with A152K, K173A

The target of test [5] is T5, β16β17 S57G (human, UniProt P11277 1898-2083, S2060G).
T5 construct: erythrocyte β-spectrin, human, residues 1898-2083 (β16β17); mutant of m2; also called S2060G; source: E. coli C41(DE3), purified (Ni2+ agarose, thrombin cleavage, gel filtration)
T5 sequence (looked up): T1 sequence (looked up) with A152K, S163G

Test [6] deals with T6, β16β17 S16A (human, UniProt P11277 1898-2083, S2019A).
T6 construct: erythrocyte β-spectrin, human, residues 1898-2083 (β16β17); mutant of m2; also called S2019A; source: E. coli C41(DE3), purified (Ni2+ agarose, thrombin cleavage, gel filtration)
T6 sequence (looked up): T1 sequence (looked up) with S122A, A152K

Positions count from the first letter of the chain named.

B1: α0α1 (erythrocyte α-spectrin residues 2–163), wild type (domain or fragment, human, UniProt P02549 2-163, looked up)
chain: EQFPKETVVESSGPKVLETAEEIQERRQEVLTRYQSFKERVAERGQKLEDSYHLQVFKRDADDLGKWIMEKVNILTDKSYEDPTNIQGKYQKHQSLEAEVQTKSRLMSELEKTREERFTMGHSAHEETKAHIEELRHLWDLLLELTLEKGDQLLRALKFQQY
notes: synthetic gene (GenScript) in a modified pRSETA plasmid; also called α1α0; source: E. coli C41(DE3), purified (Ni2+ agarose, thrombin cleavage, gel filtration)
Regarding B1, the Ka was determined as 520000 M⁻¹ in test [1]; 1.5e+06 M⁻¹ in test [2]; 980000 M⁻¹ in test [3]; 500000 M⁻¹ in test [4]; 900000 M⁻¹ in test [5]; 490000 M⁻¹ in test [6].
